Here are results for 1 substance from patent US20190117763A1.

In the experiment the target is wildtype PV1 VLPs (74S empty capsids, N-antigenic form) (poliovirus serotype 1 (PV1), Mahoney strain) (UniProt P03300).
Chain of UniProt P03300 (P03300 2-341 limits assumed, chain 1 of 3): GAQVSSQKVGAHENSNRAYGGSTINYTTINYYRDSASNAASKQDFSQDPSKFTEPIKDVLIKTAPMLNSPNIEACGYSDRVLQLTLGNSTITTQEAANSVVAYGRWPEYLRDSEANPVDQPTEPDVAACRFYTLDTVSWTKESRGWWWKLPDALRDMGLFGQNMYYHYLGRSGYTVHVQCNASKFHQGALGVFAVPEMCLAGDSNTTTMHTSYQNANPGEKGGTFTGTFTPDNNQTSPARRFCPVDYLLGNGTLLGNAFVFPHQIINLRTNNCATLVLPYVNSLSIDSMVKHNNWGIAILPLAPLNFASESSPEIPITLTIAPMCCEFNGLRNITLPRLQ
Chain of UniProt P03300 (P03300 342-579 limits assumed, chain 2 of 3): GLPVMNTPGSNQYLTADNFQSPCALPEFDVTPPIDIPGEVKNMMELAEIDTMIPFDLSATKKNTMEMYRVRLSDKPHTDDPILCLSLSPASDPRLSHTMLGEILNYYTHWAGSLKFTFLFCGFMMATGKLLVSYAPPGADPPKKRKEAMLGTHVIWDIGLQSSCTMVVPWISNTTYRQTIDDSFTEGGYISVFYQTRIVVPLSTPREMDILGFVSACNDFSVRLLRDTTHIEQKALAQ
Chain of UniProt P03300 (P03300 580-881 limits assumed, chain 3 of 3): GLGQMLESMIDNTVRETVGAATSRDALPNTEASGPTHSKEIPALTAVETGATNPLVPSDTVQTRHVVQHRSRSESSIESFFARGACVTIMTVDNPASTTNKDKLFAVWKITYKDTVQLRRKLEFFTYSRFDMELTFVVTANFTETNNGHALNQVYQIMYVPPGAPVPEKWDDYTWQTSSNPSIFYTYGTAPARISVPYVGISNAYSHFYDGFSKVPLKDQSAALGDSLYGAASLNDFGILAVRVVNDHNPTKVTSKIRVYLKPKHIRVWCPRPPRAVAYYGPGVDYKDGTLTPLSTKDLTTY

Novus 14D2(7C5) monoclonal antibody showed a N-antigenic units/µl (N-antigenic units/µl) of 6.15.
